For test [1], the target named is porcine pancreatic elastase (porcine, UniProt P00772 27-266). Nature of the test: elastase inhibition, AAApNA substrate. How it is done:
(§1) The substrates N-succinyl-Ala-Ala-Pro-Phe-p-nitroaniline (AAPFpNA), Nα—Benzoyl-L-arginine-4-nitroaniline hydrochloride (BApNA) and N-succinyl-[…] (AAApNA) are used in competitive binding reaction to determine the inhibitory activities against α-chymotrypsin, bovine trypsin, and porcine pancreatic elastase, respectively. Experiments for α-chymotrypsin and bovine trypsin inhibition were measured in 20 mM CaCl₂, 50 mM Tris-HCl buffer (pH 7.8), and that for porcine elastase inhibition was measured in 50 mM Tris-HCl buffer (pH 8.0). The concentration of the peptide was measured using optical density (OD) at 280 nm. The Michaelis constant (Kₘ) of the enzyme hydrolysis substrate is calculated from the initial rate of substrate hydrolysis at 405 nm. The absorbance value of the substrate was measured at 405 nm after complete hydrolysis. All data were processed using nonlinear regression.
(1) Added a total 190 μL of different concentrations of peptides (ECs) against elastase and reaction buffer (20 mM CaCl₂, 50 mM Tris-HCl buffer (pH 8.0)) into the pre-cold 96 well plate, followed by preheating at 37° C. for 5 min and centrifugated at 500 rpm for 1 min and allowed to stand for 4 minutes. […] Finally, added 2 μL of 100 mM AAApNA, and mixed by centrifugation at 500 rpm for 1 min. The plate was incubated at 37° C. for 60 min, and the absorbance value at 405 nm was measured. […]

Test [2] addresses T1, bovine trypsin (bovine, UniProt P00760 24-246). The test is described as follows: trypsin (50 nM) BApNA hydrolysis, OD405; peptide at 0.0098 µM.
The target of test [3] is T1, bovine trypsin. The test is described as follows: trypsin (50 nM) BApNA hydrolysis, OD405; peptide at 0.98 µM.
Test [4] concerns the target T1, bovine trypsin. Nature of the test: trypsin (50 nM) BApNA hydrolysis, OD405; peptide at 0.0488 µM. The procedure: as §1
(§2) (1) Added a total 190 μL of reaction buffer (20 mM CaCl₂ and 50 mM Tris-HCl, pH 7.8) along with different concentrations of anti-trypsin peptides (BTs) into the pre-cooled 96-well plate, followed by preheating at 37° C., and spined down at 500 rpm for 5 min. Next added 10 μL of 1 μM trypsin, incubated at 37° C., and then spined down at 500 rpm for 10 min. Finally, added 5 μL of 50 mM BApNA, and mixed by centrifugation at 500 rpm for 1 min. […] The experiment was performed in triplicate. The blank control only contained the reaction buffer and the substrate as the minimum absorption value (Min OD_{405 nm}). The negative control only contained the reaction buffer, the enzyme and the substrate as the maximum absorption value (Max OD_{405 nm}). […] (2) In the reaction system of 205 μL, the final concentrations of trypsin and BApNA were 50 nM and 1.22 mM, respectively. [0456] (3) Data statistics

For test [5], the target named is T1, bovine trypsin. Nature of the test: trypsin (50 nM) BApNA hydrolysis, OD405; peptide at 0.98 µM. How it is done: as §1, §2
This is another data set of the same source.

In test [6] the target is T1, bovine trypsin. The test is described as follows: trypsin (50 nM) BApNA hydrolysis, OD405; peptide at 0.00098 µM.
Test [7] has as its target T1, bovine trypsin. Nature of the test: trypsin (50 nM) BApNA hydrolysis, OD405; peptide at 0.0098 µM. How it is done: as §1, §2
This is another data set of the same source.

For test [8], the target named is T1, bovine trypsin. Nature of the test: trypsin (50 nM) BApNA hydrolysis, OD405; peptide at 0.00098 µM. This is another data set of the same source.
In test [9] the target is T1, bovine trypsin. The test is described as follows: trypsin (50 nM) BApNA hydrolysis, OD405; peptide at 0.0488 µM. The source holds these as a separate data set.
Test [10] deals with T1, bovine trypsin. Nature of the test: trypsin (50 nM) BApNA hydrolysis, OD405; peptide at 0.098 µM. The procedure: as §1, §2
For test [11], the target named is T1, bovine trypsin. Nature of the test: trypsin (50 nM) BApNA hydrolysis, OD405; peptide at 0.000098 µM. The procedure: as §1, §2
The target of test [12] is T1, bovine trypsin. The test is described as follows: trypsin (50 nM) BApNA hydrolysis, OD405; peptide at 9.76 µM. The procedure:
as §1, §2

The target of test [13] is T1, bovine trypsin. Nature of the test: trypsin (50 nM) BApNA hydrolysis, OD405; peptide at 0.0780 µM. How it is done: as §1
(1) Added a total 190 μL of reaction buffer (20 mM CaCl₂ and 50 mM Tris-HCl, pH 7.8) along with different concentrations of anti-trypsin peptides (BTs) into the pre-cooled 96-well plate, followed by preheating at 37° C., and spined down at 500 rpm for 5 min. Next added 10 μL of 1 μM trypsin, incubated at 37° C., and then spined down at 500 rpm for 10 min. Finally, added 5 μL of 50 mM BApNA, and mixed by centrifugation at 500 rpm for 1 min. […] The experiment was performed in triplicate. […]

The target of test [14] is T1, bovine trypsin. Nature of the test: trypsin (50 nM) BApNA hydrolysis, OD405; peptide at 0.098 µM. This is another data set of the same source.
The target of test [15] is T1, bovine trypsin. The test is described as follows: trypsin (50 nM) BApNA hydrolysis, OD405; peptide at 9.76 µM. The source holds these as a separate data set.
Test [16] concerns the target T1, bovine trypsin. Nature of the test: trypsin (50 nM) BApNA hydrolysis, OD405; peptide at 97.56 µM. The procedure: as §1, §2

Bridge positions count the residues as written; N and C are the ends. Ends that are not written are not given here.

T1 sequence (P00760 24-246): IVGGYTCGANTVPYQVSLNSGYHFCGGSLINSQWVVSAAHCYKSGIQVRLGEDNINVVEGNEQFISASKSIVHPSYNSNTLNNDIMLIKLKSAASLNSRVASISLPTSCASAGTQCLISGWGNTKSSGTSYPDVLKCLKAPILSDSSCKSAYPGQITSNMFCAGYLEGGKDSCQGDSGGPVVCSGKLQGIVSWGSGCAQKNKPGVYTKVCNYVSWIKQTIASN
porcine pancreatic elastase, sequence (P00772 27-266 limits assumed): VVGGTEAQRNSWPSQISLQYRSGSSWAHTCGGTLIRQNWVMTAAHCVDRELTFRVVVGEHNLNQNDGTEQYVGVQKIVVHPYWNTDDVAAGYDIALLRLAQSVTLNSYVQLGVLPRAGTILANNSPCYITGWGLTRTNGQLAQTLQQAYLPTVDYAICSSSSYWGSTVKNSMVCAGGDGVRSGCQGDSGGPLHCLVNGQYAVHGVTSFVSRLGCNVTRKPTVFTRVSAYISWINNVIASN

On to LCTLSIPPQCY (disulfide 2-10 (inferred)) [EC2], for which the binding result in test [1] is recorded as “binds”.

As to CGRATKSIPPICF (disulfide 1-12 (inferred), synthetic) [BT9], the “Residual trypsin activity (%)” value in test [2] is 94.3%; in test [3], -0.4%; in [4] it was 68.1%; in test [5], -0.4%; in test [6], 100%; in [7] it was 94.3%. The “Residual trypsin activity (%)” value in test [8] came out at 100%; in [9], 68.1%.

Consider CGRQTKSIPPICF (disulfide 1-12 (inferred), synthetic) [BT54], for which the “Residual trypsin activity (%)” value is 65.8% in test [4]; 0.1% in test [5]; 99.2% in test [6]; 99.9% in test [7]; 7.2% in test [10]; 101% in [11]. The “Residual trypsin activity (%)” value in test [12] is -0.1%; in test [13] it was 24.3%.

Take CARATKSIPPICF (disulfide 1-12 (inferred), synthetic) [BT67]: the “Residual trypsin activity (%)” value amounted to 102% in test [2]; 0.1% in test [3]; 1.5% in test [14]; 104% in test [8]; 0.1% in test [15]; 49.6% in [9].

Regarding CGRSTKSIPPICF (disulfide 1-12 (inferred), synthetic) [BT47], the “Residual trypsin activity (%)” value in test [4] was found to be 57.4%; in test [5] it was 0.2%; in test [6], 105%; in [7], 108%; in test [10] it was 5.6%; in [11] it was 103%. Besides, the “Residual trypsin activity (%)” value in test [16] amounted to 0.1%; in [12], 0%; in [13] it was 39%.

In the case of CGTATKSIPPICF (disulfide 1-12 (inferred), synthetic) [BT25], the “Residual trypsin activity (%)” value in [2] stood at 99.6%; in test [3] it was 49.7%; in test [5] it was 49.7%; in [6] it was 101%; in test [7], 99.6%; in test [10], 100%. Further, the “Residual trypsin activity (%)” value in test [16] was 0.2%; in [14] it was 100%; in test [12], 1%; in test [8] it was 101%; in test [15], 1%.

Consider CPRATKSIPPICF (disulfide 1-12 (inferred), synthetic) [BT66], for which the “Residual trypsin activity (%)” value was 106% in test [2]; 0.1% in test [3]; 4.8% in test [14]; 105% in [8]; 0.1% in [15]; 66.8% in test [9].

Regarding CGRYTKSIPPICF (disulfide 1-12 (inferred), synthetic) [BT53], the “Residual trypsin activity (%)” value in test [4] is 87.4%; in [5], 0.5%; in test [6], 109%; in test [7] it was 106%; in [10], 63%; in test [11], 104%. In addition, the “Residual trypsin activity (%)” value in [16] was 0%; in test [12] it was 0.2%.

Turning to CGRAAKSIPPICF (disulfide 1-12 (inferred), synthetic) [BT26], the “Residual trypsin activity (%)” value is 99.5% in test [2]; 94.5% in test [3]; 94.5% in [5]; 99.5% in test [7]; 100% in [10]; 0.1% in test [16]. Moreover, the “Residual trypsin activity (%)” value in [14] came out at 100%; in [12] it was 0.4%; in test [15], 0.4%.

CGLATLSIPPICQ (disulfide 1-12 (inferred)) [EC7]: the binding result in [1] was “binds”.

The values above are taken from US20230416329A1 (INSTITUTE OF MATERIA MEDICA CHINESE ACADEMY OF MEDICAL …, published 2023).
